Patent publication US7442375B2, “Compositions of beta-defensin inducing agents” (Case Western Reserve University, priority 2002, dated 2008)

Tests used:
MT4 cellular membrane = experiment: Immunogold transmission electron microscopy; type: binding, human; settings: 20 μg/ml, 37° C., 1 h; anti-hBD antibody and 10-nm gold IgG
Method: (a) CXCR4 tropic HXB2 and CCR5 tropic 97ZA003 HIV-1 strains were incubated with 20 μg/ml hBD-1, -2, or -3 in 10 mM PB for 1 h. Virions were pelleted, washed extensively with PBS and used to infect GHOST X4/R5 cells. RT activity was measured 48 h post-infection. The final two columns represent an additional 20 μg/ml of hBD-2 or -3 during infection. (b) Immunoelectron microscopy analysis showing the interaction of hBD-2 and -3 with HIV-1 and with MT4 cell membrane. X4 HIV-1 HXB2 strain and MT4 cells were incubated with hBD-2 or -3 (20 μg/ml), 37° C., 1 h. Polyclonal anti-hBD-2 or -3 antibodies were added, followed by addition of secondary IgG conjugated with 10-nm gold particles. Arrows indicate hBD-2 and -3 localization to virions and cell membrane.
MT4 cells in RPMI, or X4 strain B-HXB2 viral particles in 10 mM phosphate buffer (PB), were incubated with 20 μg/ml hBD-2 and -3 at 37° C. for 1 h. Cells and virions were centrifuged (15 min, 1200 rpm for cells; 30 min, 35 000 3 g for virus) and washed twice with PBS to remove unbound hBD. Cells and virions were mixed and fixed with 4% paraformaldehyde/0.5% glutaraldehyde, dehydrated, embedded in LR WHITE resin (London Resin Company Ltd, Berkshire, UK), and labeled after embedding as described [Briquet et al.]. […]

HIV-1 X4 B-HXB2 = type: cell-based; settings: virus preincubated 1 h with hBD in 10 mM PB; GHOST cells 48 h; GFP fluorescence
Method: (§1) HIV-1 strains (X4 HXB2 and R5 93US142) were incubated in 10 mM PB with increasing concentrations of hBD and used to infect GHOST X4/R5 cells. (a) Qualitative determination of HIV-1 infection, measured by GFP fluorescence, in the absence (−C) and presence (+C) of virus preincubated in 10 mM PB. (b) Anti-HIV-1 activity of hBD in GHOST X4/R5 cells using fluorescence microscopy. (c) Anti-HIV-1 activity of hBD measured by RT activity in cell-free culture supernatant, relative to the positive control (i.e., HIV-1 infection in the absence of hBD). (d) Antiretroviral activity of hBD against CXCR4- and CCR5-tropic HIV-1 strains in three different environments: DMEM+10% FBS (complete medium); DMEM alone (Medium no FBS); 10 mM PB. Viruses were incubated with 20 μg/ml of each hBD for 1 h in each condition and used to infect CEM X4/R5 cells as described. Results are representative of three independent experiments.
(§2) HIV-1 isolates were incubated with increasing concentrations (5-40 μg/ml) of hBD-1, -2, and -3, in three different conditions: high salt complete medium (RPMI-1640 or DMEM supplemented with 10% fetal bovine serum, FBS); high salt medium in the absence of FBS; or low salt medium (10 mM phosphate buffer), 37° C. for 1 h. Respective mixtures were used to infect PBMC, Ghost X4/R5 or CEM X4/R5 cells at an MOI of […]. After 2 h incubation at 37° C., 5% CO2, cells were washed three times with phosphate-buffered saline (PBS) and cultured in complete medium for 48 h. In the case of Ghost X4/R5 cells, these were washed, resuspended in PBS, and analyzed by fluorescence microscopy for GFP expression as described [Morner et al.]. Cell-free supernatants from PBMC, Ghost X4/R5 and CEM X4/R5 cultures were used to monitor infectivity by the reverse transcriptase (RT) assay [Quinones-Mateu et al.]. The 50% inhibitory concentration (IC50) of each hBD was determined using X4 or R5 HIV-1 isolates. Viruses (0.01 MOI) were incubated with increasing concentrations of hBD-1, -2, and 3 (up to 40 µg/ml) in low salt medium for 1 h and used to infect CEM X4/R5 cells. After 2 h incubation at 37° C., 5% CO2, cells were washed twice with PBS and cultured in complete medium. Supernatant samples were removed on day 5 post-infection and virus production was measured using […] the RT assay [Id.]. Cytotoxicity of hBD was quantified by determining the number of viable cells using a tetrazolium-based colorimetric (MTT) assay [Pauwels et al.].
(§3) Since the antibacterial activity of beta-defensins is sensitive to high salt and serum concentrations, the anti-HIV-1 activity of hBD was initially evaluated in a low salt, serum free environment, mimicking oral mucosal conditions [Mandel et al.]. Two HIV-1 isolates (X4 B-HXB2 and R5 B-93US142) were preincubated for 1 h with increasing concentrations of recombinant hBD-1, -2, and -3, in 10 mM phosphate buffer (PB). GHOST CCR5/CXCR4 cells were then exposed to the mixtures for 48 h in complete medium. […] When CXCR4- and CCR5-tropic HIV-1 strains were preincubated with beta-defensins in high salt medium (DMEM) supplemented with 10% FBS, no antiviral effect was detected (FIG. 4d). However, preincubation in DMEM without FBS inhibited replication of X4, but not R5, HIV-1 isolates (FIG. 4d). Under low salt conditions (i.e., 10 mM PB, no FBS) the 50% inhibitory concentration for both agents against X4 and R5 viruses ranged from 9 to 19 μg/ml and 20 to 40 μg/ml, respectively.

HIV-1 R5 B-93US142 = type: cell-based; settings: virus preincubated 1 h with hBD in 10 mM PB; GHOST cells 48 h; GFP fluorescence
Method: as §1, §2, §3

B1: hBD-3: Recombinant human β-defensin 3 produced using an hBD-3-His tag fusion construct cloned into pET-30c; exemplary sequence SEQ ID NO:15 (protein, listed as Homo sapiens)
chain: MRIHYLLFALLFLFLVPVPGHGGIINTLQKYYCRVRGGRCAVLSCLPKEEQIGKCSTRGRKCCRRKK
modifications: not fully specified (C-terminus); ends and bridges not checked
- gold particles bound to MT4 cellular membrane (MT4 cellular membrane): bound both to virions and to the MT4 cellular membrane
- anti-HIV-1 activity (HIV-1 X4 B-HXB2): showed anti-HIV-1 activity
- anti-HIV-1 activity (HIV-1 R5 B-93US142): showed anti-HIV-1 activity
